Experimental data from patent CN111704670A (MABWELL SHANGHAI BIOSCIENCE CO LTD; JIANGSU MABWELL NEW …, dated 2020).

T1: RANKL-兔Fc (rabbit, UniProt O14788 140-317 (human entry), limits assumed)
T1 sequence (looked up): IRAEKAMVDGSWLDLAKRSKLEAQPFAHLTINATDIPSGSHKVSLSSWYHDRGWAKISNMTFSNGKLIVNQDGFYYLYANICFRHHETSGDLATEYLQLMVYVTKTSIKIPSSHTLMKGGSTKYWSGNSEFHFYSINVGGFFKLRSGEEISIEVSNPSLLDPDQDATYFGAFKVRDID


Biological target: T1, RANKL-兔Fc
Test: cell-based or functional assay

异构体生物活性 IC50 | 生物学活性量效曲线 IC50 (RAW264.7 TRAP/pNPP assay); 原液 lot 20131201 | 生物学活性量效曲线 IC50 (RAW264.7 TRAP/pNPP assay); 原液 lot 20140201 | 生物学活性量效曲线 IC50 (RAW264.7 TRAP/pNPP assay); 工作参考品 lot 20140301, plate with Denosumab | 生物学活性量效曲线 IC50 (RAW264.7 TRAP/pNPP assay); 工作参考品 lot 20140301, plate with lot 20131201 | 生物学活性量效曲线 IC50 (RAW264.7 TRAP/pNPP assay); 工作参考品 lot 20140301, plate with lot 20140201 | Binder
3 ng/mL |  |  |  |  |  | 重组人源抗RANKL抗体IgG2型二硫键异构体IgG2-B型 (antibody, V domains shown) VH: EVQLLESGGGLVQPGGSLRLSCAASGFTFSSYAMSWVRQAPGKGLEWVSGITGSGGSTYYADSVKGRFTISRDNSKNTLYLQMNSLRAEDTAVYYCAKDPGTTVIMSWFDPWGQGTLVTVSS VL: EIVLTQSPGTLSLSPGERATLSCRASQSVRGRYLAWYQQKPGQAPRLLIYGASSRATGIPDRFSGSGTDFTLTISRLEPEDFAVFYCQQYGSSPRTFGQGTKVEIKR
 | 1.07 ng/ml | 1.63 ng/ml | 1.11 ng/ml | 1.33 ng/ml | 1.34 ng/ml | 重组人源抗RANKL单克隆抗体IgG2型 (TK006) (antibody, V domains shown) VH: EVQLLESGGGLVQPGGSLRLSCAASGFTFSSYAMSWVRQAPGKGLEWVSGITGSGGSTYYADSVKGRFTISRDNSKNTLYLQMNSLRAEDTAVYYCAKDPGTTVIMSWFDPWGQGTLVTVSS VL: EIVLTQSPGTLSLSPGERATLSCRASQSVRGRYLAWYQQKPGQAPRLLIYGASSRATGIPDRFSGSGTDFTLTISRLEPEDFAVFYCQQYGSSPRTFGQGTKVEIKR
2.89 ng/mL |  |  |  |  |  | 重组人源抗RANKL抗体IgG2型二硫键异构体IgG2-A型 (antibody, V domains shown) VH: EVQLLESGGGLVQPGGSLRLSCAASGFTFSSYAMSWVRQAPGKGLEWVSGITGSGGSTYYADSVKGRFTISRDNSKNTLYLQMNSLRAEDTAVYYCAKDPGTTVIMSWFDPWGQGTLVTVSS VL: EIVLTQSPGTLSLSPGERATLSCRASQSVRGRYLAWYQQKPGQAPRLLIYGASSRATGIPDRFSGSGTDFTLTISRLEPEDFAVFYCQQYGSSPRTFGQGTKVEIKR
